Experimental data published in the DeepSol protein solubility set.

Assay: soluble on expression in E. coli; label from the status in PepcDB or PDB records

Sequence	soluble on expression in E. coli
MENSIEAYLADSREKVTLGTVVDCFKGKAVSSKVVPGDVGLINLSDMGTLGIQYHQLRTFQMDRRQLLRYLLEDGDVLIASKGTLKKVCVFHKQNRDVVASSNITVLRPQKLLRGYYIKFFLDSPIGQALLDVADHGKDVINLSTKELLDIPIPVIPLVKQDYLINHYLRGLTDYHRKLNRAEQEWEYIQNEIQKGLG	soluble
MRIVEEMVGKEVLDSSAKVIGKVKDVEVDIESQAIESLVLGKGGISEGLGLSKGETIVPYEMVKKIGDKILLKGPEE	not soluble
GMVSRSPFESFQWKSDIFNCESTDIDNFYLLLEQEMTRLGMVEKNLGEVGKYKVSLYQSPAAKSGLPSLLISAGFHGEESAGPWGLLHFLSEASADLFERVNLSLLPLVNPTGFSRGHRFNKYGENPNRGFVFENGKPKANEHTSVEGKLLLDHAQLLIAACRDGILTCHEDVLSREAYVYSFEPSQVPGRFSLDLRDTLGGYFPIAVDGEIDACPVKDGLIFNHFDTSFEACLVRSGARVGACTETPALQNFDQRVLANSAAMTHFLALCAPLCD	soluble
LQETGAEFKIEVSILKDKATVLIDTTGASLFKRGYRTDKGGAPIKENMAAAILELSNWYPDKPLIDPTCGSGTFCIEAAMIGMNIAPGFNRDFAFEAWNWVGKDLVQSVRDEADSKANYDVALDIMGCDIDSRMVEIAKANAREAGLEDVVKFKQMRLQDLKTDKINGVIISNPPYGERLLDDKAVDILYNEMGQTFAPLKTWSKFILTSDEQFESKYGMKADKKRKLYNGTLRVDLYQYFGERVRRSEARKVN	not soluble
MKFKLFLGSSFFGVATLLIACGTGRFDQIDDGKIKLAVVTSPSAASSLQTLLDQYNNTKAPADYPVEVVSLDSTGSYTKGKFDTQKRLAAKDKNNFYN	not soluble
MSLKMRVYYEDTDAGGVVYHSNYLKFCERARSEIFFNKKVDIFDASKGHFLLAKANCNFLKPAKLGDMIEIKTKILEVKNASVEILQEIYKDEILLFKMELTLAFIKNEKPARMDMQLKKLFEELFEGGSHHHHHH	soluble
GPGSMRKFCHFMANCWNSARSHATYGAVPLTHSQVTSVYATDGGKVDELGLLELVEERIFSWKLNKWEMRIPPNLPNDQKELIRQEQENLKQILSGWRKCFGALNADILQISSLTGVPKEVVREKNRTWLQEEVAKLRWMGEVNKAALLRDAFMRLEAFGSRDFMFMERLCCIYGLARQGTFDEAFTNYITEDPVTNDIFVDERNPFKELVAHIVRNYSQIDIIYDFLGFNYSEGYRSSLRRYMEYLQCKTAENVRASGRLVTGDKGEHNILFDYCVSRESLVSGDSCQGIIDFLYINGNDVTLIIIASDNPWLRNRQLPHRRQMEGIARRVCFVLGIPPSEVRIRNLLLPPTYLDKGSIVRLNDIVFRLSNEQSNLLIPWLTNYNKELDPKDVDYTALAKTTNEEEWLTL	not soluble
MGSDKIHHHHHHLVSDNMVLQQATKVRLWGNATPNSSLKVRSSWDNTEYTAQVNDQGRWEIWVQTPSASFEKQQLTLKNGQDKIVLHDLLIGEVWFGSGQSNMEMPLRGFWHCPIEGGNHAIATSGKYKNSIRYATIQRVGALEPKDYPVGGEWKVCDPRNAPEFGATAYFFATLLTEVLNVPVGIINCSWGGSTVEGWLPKDILRNYSDIDLSLAGNDEKIHPMLQPMIMYNGMLKPASKYTVRGFLWYQGESNVGHPDYAKRLATMVEHWRGLWGQEELPFYLVEIAPYEYGEGDQAAYLREEQYKATRLIPNSGIVSTNDLVQDYEKRQIHPKEKQKIGERLCYMALNKTYGYTTIACEGPQYDHMEVDKDKIILFFKNAEDGFNRDNGIIGFEIAGKDMRFHKANATIDANKKTVIISAPDVKAPIAVRYGFRNFQIGNLQNVQGLPVLPFRTDK	not soluble
MAHHHHHHMNFLNDEILKKSCEIEKLQDRLLDYESKLLIYENNNEIKILKKNEDHLRKLLSKHIHRNEQLLNTTFLLQKSTLENNSLEKKIIELRAKSYRKDQEIKKLQETKSIRKSPSSNCSHNSQEYSMDLIDDLNEDNYNLKYYHNNSIVGDQENSVYTSKKSYDKNITIGSLADTEKRSIKIKNIIPHSHNNEDPVHFALCEYLNCFKKNNLSIKINKLDDNTYLLNDKKVVISFINGDLYVEDDASPIKLQDYLLKTVVR	soluble
MGHHHHHHHHHHSSGHIEGRHMIRLGYPCENLTLGATTNRTLRLAHLTEERVREKAAENLRDLERILRFNADHGFALFRIGQHLIPFASHPLFPYDWEGAYEEELARLGALARAFGQRLSMHPGQYVNPGSPDPEVVERSLAELRYSARLLSLIGAEDGVLVLHLGGAYGEKGKALRRFVENLRGEEEVLRYLALENDERLWNVEEVLKAAEALGVPVVVDTLHHALNPGRLPLEEALRLAFPTWRGRPRVHLASQDPKKRPGAHAFRVTREDWERLLSALPGPADVMVEAKGKEQGLATP	soluble
MAHHHHHHMWYSNLFVAKLPRHLCDGDLLQIFSNFNPLGAKIMLDPSTGNSKGFGFVLFDKEEEGRTAYERLNRKLVRVCNSSFNLLIYPSQHNGKAVTLPSRAVYIRNIPTTMGEREVQNFLSNLAPLEYCAMRGDHHGNPVWVVYAEFDTPQNAQRVLDKLHGNSNHFGGPPIMVKYADTDEAKRERRRRREEGRLAPGPALKGACLFPPPRPGVVSLNQTQVSQSATETSPSCSPAAHHVTKTKMVAPMVEVEPRAQPLYFSTSPVTAMPPLLPVDMSYDGAAATVPLQTADCPAANGVLVLGNGQQVFLTPNAVNLHPTKFNAPPTALLVPAVDTTLVPLPPQRTLVYGPW	not soluble
MTTPFTHETLPADPKAAIRQMKQALRAQIGDVQAVFDRLSATIAARVAEINDLKAQGQPVWPIIPFSELAMGNISDATRAEVKRRGCAVIKGHFPREQALAWDQSMLDYLDKNHFDEVYKGPGDNFFGTLSASRPEIYPVYWSQAQMQARQSEEMALAQSFLNRLWQVEHDGKRWFNPDISIIYPDRIRRRPPGTTSKGLGAHTDSGALERWLLPAYQQVFASVFNGNVEQYDPWNAAHRTDVEEYTVDNTTKCSVFRTFQGWTALSDMLPGQGLLHVVPIPEAMAYILLRPLLDDVPEDELCGVAPGRVLPISEQWHPLLMAALTSIPPLEAGDSVWWHCDVIHSVAPVENQQGWGNVMYIPAAPMCEKNLAYARKVKAALETGASPGDFPREDYETTWEGRFTLRDLNIHGKRALGIDV	soluble
MAHHHHHHMNSSTVSEDIALAGIKKEVLRSLPFWKSFVELREAYHRRPRVFSCDVSIKSRKACSHFVGFDVLWVQSEVVLVSWRRPSKRNRANDFPPEFVEVHLTFGSMHFVHQNVHLVGDHCSYSLQSVVLLQRPEQLQCVAGNMVHFAFLVYGMLHISQRDGFLTDPRAILPPPNSAVMLLGMGGNSMERGIRYILGEDAHIYIAEIEPAVVSTCRFAGLLKENANTHVCLDSAERTIQKCPEKCTFIFMDLFEPLSGNMVNTMPLIRQAFDILAPNGILLINEHSIPTVEHLLPLLHLFGDHNVQFVNVRGWNESIIAATKPGGNADGLGRKCSKRLATDVLNDFDHTFPGWMPDKNYILRSQILYAKPLTLKLRARQWTS	not soluble
MGSDKIHHHHHHMRYRPVIGLEIHVQLSTKTKAFCSCPADVFELPPNTAICPVCTGQPGALPVPNEEMIRFAVKTALALNCKIHKYSRFDRKNYFYPDLPKGYQISQYFYPIATEGFLEIDGDEGRKKVRIRRLHLEEDAGKLVHEGDSITRASYSLVDMNRCGVPLIEIVTEPDISSPREARVFMEKLRSIVRYLGVSTGDMEKGALRCDANISVVDTETGRQSNRVEVKNMNSFRFVERALEYEFERIVKAMERGEDVERETRGWDMATKITVSMRGKEEESDYRYFPEPDIPPVVLSDEYLEEVKKELPELPDEKAERFMREYGLPEYDAKVLTSSKELAEFFEECVKVVNRPKDLSNWIMTEVLRELNERNIEITESKLTPQHFADLFKLMDEGKISIKIAKEIFPEVFETGKMPSQIVEEKGLTQINDEKLIEELVKKAMEQNPKAVQDYKSGKKKAAGFFVGYVMRETKGKANPELTNRIIQKLLEGE	not soluble
MEDTIPAMPQWDKIIYNVLHGSTMKGITSLKKTSVWNEATPVCRESNREAIRRRFTRGLLGRLLQRTPLESCTPVFLPAAQSWPTLEMVPAGALLPGLSEGGEGAKNGSVTTGFFEFTESLPAVGLQRVLPVLPKSAWA	not soluble
